# Assay results taken from IntAct's records for PubMed 21111240.
# Columns and labels:
# goga2_mouse Golga2 = goga2_mouse Golga2 (UniProt Q921M4)
# straa_mouse Strada = straa_mouse Strada (UniProt Q3UUJ4)
# Chain of straa_mouse Strada (Q3UUJ4 whole entry): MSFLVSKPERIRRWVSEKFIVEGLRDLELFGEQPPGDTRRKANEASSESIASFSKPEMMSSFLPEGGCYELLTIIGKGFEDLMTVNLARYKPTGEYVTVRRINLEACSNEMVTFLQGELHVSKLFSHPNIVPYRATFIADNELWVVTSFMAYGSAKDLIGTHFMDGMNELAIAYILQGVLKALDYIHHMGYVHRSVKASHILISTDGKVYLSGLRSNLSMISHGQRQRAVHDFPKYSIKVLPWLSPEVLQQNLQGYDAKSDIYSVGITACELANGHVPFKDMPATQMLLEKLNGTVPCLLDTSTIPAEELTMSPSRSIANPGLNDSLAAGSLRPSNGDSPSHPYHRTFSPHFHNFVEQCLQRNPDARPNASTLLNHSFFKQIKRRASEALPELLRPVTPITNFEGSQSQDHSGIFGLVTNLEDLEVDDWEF
# Chain of Serine/threonine-protein kinase 25 (Mus musculus), Q9Z2W1 K49R (Q9Z2W1 whole entry K49R): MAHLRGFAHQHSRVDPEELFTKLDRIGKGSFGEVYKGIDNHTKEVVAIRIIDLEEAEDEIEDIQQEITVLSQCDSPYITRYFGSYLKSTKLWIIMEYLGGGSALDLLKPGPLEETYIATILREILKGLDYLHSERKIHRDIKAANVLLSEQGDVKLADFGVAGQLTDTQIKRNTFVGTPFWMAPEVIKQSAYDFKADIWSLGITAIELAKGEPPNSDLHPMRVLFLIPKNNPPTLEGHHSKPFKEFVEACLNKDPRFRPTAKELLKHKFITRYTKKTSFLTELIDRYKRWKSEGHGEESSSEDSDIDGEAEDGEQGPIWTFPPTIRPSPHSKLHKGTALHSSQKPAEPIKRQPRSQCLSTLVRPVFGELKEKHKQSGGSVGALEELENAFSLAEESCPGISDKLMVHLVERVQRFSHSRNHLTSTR
# Chain of goga2_mouse Golga2 (Q921M4 whole entry): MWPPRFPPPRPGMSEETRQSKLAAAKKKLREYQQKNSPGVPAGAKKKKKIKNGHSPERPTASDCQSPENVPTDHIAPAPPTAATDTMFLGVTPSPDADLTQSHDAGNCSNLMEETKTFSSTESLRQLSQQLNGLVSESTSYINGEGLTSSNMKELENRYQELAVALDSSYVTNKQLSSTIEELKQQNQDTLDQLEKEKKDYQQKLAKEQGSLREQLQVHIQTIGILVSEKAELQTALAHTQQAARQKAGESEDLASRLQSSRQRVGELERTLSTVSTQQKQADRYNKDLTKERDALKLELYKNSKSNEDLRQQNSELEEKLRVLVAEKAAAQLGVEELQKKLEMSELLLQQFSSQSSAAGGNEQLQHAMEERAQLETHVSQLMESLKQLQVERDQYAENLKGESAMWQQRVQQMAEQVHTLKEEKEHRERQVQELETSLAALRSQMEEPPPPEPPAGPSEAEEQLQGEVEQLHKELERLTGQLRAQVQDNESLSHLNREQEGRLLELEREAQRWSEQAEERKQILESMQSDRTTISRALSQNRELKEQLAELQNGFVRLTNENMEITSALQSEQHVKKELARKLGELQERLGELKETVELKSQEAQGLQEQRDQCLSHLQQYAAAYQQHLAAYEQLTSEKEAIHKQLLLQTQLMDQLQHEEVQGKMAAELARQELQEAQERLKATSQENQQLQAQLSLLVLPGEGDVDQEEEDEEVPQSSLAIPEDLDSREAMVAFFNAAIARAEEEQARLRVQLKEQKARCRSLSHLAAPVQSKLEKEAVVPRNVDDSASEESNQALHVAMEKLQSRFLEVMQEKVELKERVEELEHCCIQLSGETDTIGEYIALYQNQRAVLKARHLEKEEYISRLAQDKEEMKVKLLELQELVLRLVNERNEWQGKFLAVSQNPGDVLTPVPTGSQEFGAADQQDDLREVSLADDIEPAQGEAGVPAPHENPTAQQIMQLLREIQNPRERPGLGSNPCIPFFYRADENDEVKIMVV
substance,measurement,setting,value
"Serine/threonine-protein kinase 25 (Mus musculus), Q9Z2W1 K49R",effect of a mutation on the interaction,goga2_mouse Golga2,increasing interaction
same,effect of a mutation on the interaction,straa_mouse Strada,decreasing interaction
